Test results taken from paper PMC8442604.

Experiments:
[1] = target: SARS-CoV-2 RBD protein (321–591) (SARS-CoV-2) (UniProt P0DTC2)
[2] = target: SARS-CoV-2 RBD protein (321–591) (SARS-CoV-2) (UniProt P0DTC2); assay: SPR

P2B-2F6 (antibody)
other [1]: 37.5 µg/mL | Kd [2]: 0.81 nM
